We go through 28 molecules from US20190359687A1 (Bayer, published 2019).

The target of assay [1] is T1, purified human glycophorin A protein (Sigma, cat # G5017) (human, UniProt P02724 20-150).
T1 construct: mature; also called Sigma hGPA; Sigma GPA
T1 sequence (looked up): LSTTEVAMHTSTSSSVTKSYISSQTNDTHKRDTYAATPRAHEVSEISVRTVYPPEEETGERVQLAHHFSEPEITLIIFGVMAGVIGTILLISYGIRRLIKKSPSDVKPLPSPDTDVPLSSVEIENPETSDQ
Kind of assay: ELISA, native hGPA.

Assay [2] addresses T2, human glycophorin A in the red blood cell membrane (human, UniProt P02724 20-150).
T2 construct: whole, on cells; used for intact RBC, isolated RBC membranes and transfected cells; the assay field tells which; also called GPA; hGPA
T2 sequence (looked up): T1 sequence (looked up)
The assay can be described thus: ELISA, human RBC membranes. (ELISA stands for enzyme-linked immunosorbent assay.)

Assay [3] addresses T3, recombinant human GPA ectodomain (human, UniProt P02724 20-91).
T3 construct: also called recombinant hGPA ECD; recGPA
T3 sequence: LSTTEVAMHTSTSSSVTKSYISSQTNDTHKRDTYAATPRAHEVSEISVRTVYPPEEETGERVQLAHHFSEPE
Kind of assay: ELISA, rec hGPA ectodomain.

Positions count from the first letter of the chain named. Numbers in names are those of the source.

B1: TPP-5316 (Fab, V domains shown)
VH: QVQLVQSGAEVKKPGASVKVSCKASGYTFTTYTIHWVRQAPGQGLEWIGYINPSSDYTRYNPKFKDRVTLTTDKSTSTAYMELRSLRSDDTAVYYCQTGTRDYWGQGTTVTVSS
VL: DIQLTQSPSFLSASVGDRVTITCSAASSVSYIYWFQQKPGKAPKLLIYSTSTLPSGVPSRFSGSGSGTEYTLTISSLQPEDFATYYCHQRNSFPFTFGQGTKLEIKR
notes: also called VH: (E1Q)
Take B1: the “binding by ELISA relative to parental” value in assay [1] was found to be 1.33; in assay [2] it was 1.16; in assay [3], 1.29.

B2: TPP-5333 (Fab, V domains shown)
VH: B1 VH with Q1E, R84S
VL: B1 VL
notes: also called VH: (R84S)
With B2, the “binding by ELISA relative to parental” value in assay [1] turned out to be 0.92; in assay [2], 0.59; in assay [3], 0.97.

B3: TPP-5329 (Fab, V domains shown)
VH: B1 VH with Q1E, D66G
VL: B1 VL
notes: also called VH: (D66G)
Turning to B3, the “binding by ELISA relative to parental” value in assay [1] is 1.02; in assay [2] it was 1; in assay [3] it was 1.12.

B4: TPP-5320 (Fab, V domains shown)
VH: B1 VH with Q1E, I48M
VL: B1 VL
notes: also called VH: (I48M)
Turning to B4, the “binding by ELISA relative to parental” value is 1.24 in assay [1], 0.99 in assay [2] and 1.35 in assay [3].

B5: TPP-5335 (Fab, V domains shown)
VH: B1 VH with Q1E, Q97A
VL: B1 VL
notes: also called VH: (Q97A)
For B5, the “binding by ELISA relative to parental” value in assay [1] was determined as 0.77; in assay [2], 0.65; in assay [3], 0.83.

B6: TPP-5323 (Fab, V domains shown)
VH: B1 VH with Q1E, D56G
VL: B1 VL
notes: also called VH: (D56G)
For the molecule B6, the figures for the “binding by ELISA relative to parental” value in assay [1], in assay [2] and in assay [3] were 1.49, 1.72 and 1.64, respectively.

B7: TPP-5353 (Fab, V domains shown)
VH: B1 VH with Q1E
VL: B1 VL with R90L
notes: also called VL: (R90L)
Take B7: the “binding by ELISA relative to parental” value in assay [2] is 0.2; in assay [3], 0.04.

B8: TPP-5330 (Fab, V domains shown)
VH: B1 VH with Q1E, L70M
VL: B1 VL
notes: also called VH: (L70M)
As for B8, the “binding by ELISA relative to parental” value in assay [1] was 1.2; in assay [2], 0.91; in assay [3], 1.29.

B9: TPP-5354 (Fab, V domains shown)
VH: B1 VH with Q1E
VL: B1 VL with F93Y
notes: also called VL: (F93Y)
As for B9, the “binding by ELISA relative to parental” value in assay [1] came out at 0.33; in assay [2] it was 0.35; in assay [3] it was 0.17.

B10: TPP-5347 (Fab, V domains shown)
VH: B1 VH with Q1E
VL: B1 VL with F35Y
notes: also called VL: (F35Y)
As for B10, the “binding by ELISA relative to parental” value in assay [1] amounted to 0.52; in assay [2] it was 0.43; in assay [3], 0.35.

B11: TPP-5317 (Fab, V domains shown)
VH: B1 VH with Q1E, T31S
VL: B1 VL
notes: also called VH: (T31S)
For the molecule B11, the “binding by ELISA relative to parental” value in assay [1] came out at 1.36; in assay [2] it was 0.68; in assay [3], 1.34.

B12: TPP-5324 (Fab, V domains shown)
VH: B1 VH with Q1E, Y57S
VL: B1 VL
notes: also called VH: (Y57S)
For the molecule B12, the “binding by ELISA relative to parental” value in assay [1] amounted to 0.53; in assay [2], 0.41; in assay [3], 0.34.

B13: TPP-5345 (Fab, V domains shown)
VH: B1 VH with Q1E
VL: B1 VL with I32L
notes: also called VL: (I32L)
On to B13, for which the results for the “binding by ELISA relative to parental” value in assay [1], in assay [2] and in assay [3] were 0.6, 0.43 and 0.48, respectively.

B14: TPP-5344 (Fab, V domains shown)
VH: B1 VH with Q1E
VL: B1 VL with V29I
notes: also called VL: (V29I)
Consider B14, for which the “binding by ELISA relative to parental” value in assay [1] stood at 0.84; in assay [2], 0.6; in assay [3], 0.77.

B15: TPP-5319 (Fab, V domains shown)
VH: B1 VH with Q1E, I34M
VL: B1 VL
notes: also called VH: (I34M)
Consider B15, for which the figures for the “binding by ELISA relative to parental” value in assay [1], in assay [2] and in assay [3] were 0.99, 0.85 and 1.08, respectively.

B16: TPP-5326 (Fab, V domains shown)
VH: B1 VH with Q1E, N61A
VL: B1 VL
notes: also called VH: (N61A)
As for B16, the “binding by ELISA relative to parental” value in assay [1] was 0.56; in assay [2], 0.45; in assay [3], 0.53.

B17: TPP-5328 (Fab, V domains shown)
VH: B1 VH with Q1E, K65Q
VL: B1 VL
notes: also called VH: (K65Q)
B17: the “binding by ELISA relative to parental” value in assay [1] was determined as 0.89; in assay [2], 0.61; in assay [3], 0.91.

B18: TPP-5327 (Fab, V domains shown)
VH: B1 VH with Q1E, P62Q
VL: B1 VL
notes: also called VH: (P62Q)
Regarding B18, the results for the “binding by ELISA relative to parental” value in assay [1], in assay [2] and in assay [3] were 0.98, 0.74 and 0.99, respectively.

B19: TPP-5322 (Fab, V domains shown)
VH: B1 VH with Q1E, S55G
VL: B1 VL
notes: also called VH: (S55G)
In the case of B19, the results for the “binding by ELISA relative to parental” value in assay [1], in assay [2] and in assay [3] were 0.86, 0.82 and 0.91, respectively.

B20: TPP-5351 (Fab, V domains shown)
VH: B1 VH with Q1E
VL: B1 VL with Y70F
notes: also called VL: (Y70F)
On to B20, for which the “binding by ELISA relative to parental” value was 0.71 in assay [1], 0.71 in assay [2] and 0.78 in assay [3].

B21: TPP-5334 (Fab, V domains shown)
VH: B1 VH with Q1E, D89E
VL: B1 VL
notes: also called VH: (D89E)
With B21, the results for the “binding by ELISA relative to parental” value in assay [1], in assay [2] and in assay [3] were 0.8, 0.72 and 0.89, respectively.

B22: TPP-5352 (Fab, V domains shown)
VH: B1 VH with Q1E
VL: B1 VL with H88Q
notes: also called VL: (H88Q)
Take B22: the “binding by ELISA relative to parental” value in assay [1] is 0.36; in assay [2], 0.34; in assay [3], 0.26.

B23: TPP-5349 (Fab, V domains shown)
VH: B1 VH with Q1E
VL: B1 VL with T50A
notes: also called VL: (T50A)
Consider B23, for which the results for the “binding by ELISA relative to parental” value in assay [1] and in assay [2] were 0.12 and 0.27, respectively.

B24: TPP-5342 (Fab, V domains shown)
VH: B1 VH with Q1E
VL: B1 VL with S27Q
notes: also called VL: (S27Q)
Take B24: the “binding by ELISA relative to parental” value in assay [1] stood at 0.91; in assay [2], 0.75; in assay [3] it was 0.95.

B25: TPP-5343 (Fab, V domains shown)
VH: B1 VH with Q1E
VL: B1 VL with S28G
notes: also called VL: (S28G)
For B25, the “binding by ELISA relative to parental” value in assay [1] stood at 0.95; in assay [2] it was 0.71; in assay [3], 0.97.

B26: TPP-5331 (Fab, V domains shown)
VH: B1 VH with Q1E, T72R
VL: B1 VL
notes: also called VH: (T72R)
For the molecule B26, the “binding by ELISA relative to parental” value was 1.11 in assay [1], 0.96 in assay [2] and 1.07 in assay [3].

B27: TPP-5346 (Fab, V domains shown)
VH: B1 VH with Q1E
VL: B1 VL with Y33A
notes: also called VL: (Y33A)
As to B27, the “binding by ELISA relative to parental” value in assay [2] was 0.42; in assay [3], 0.03.

B28: TPP-5332 (Fab, V domains shown)
VH: B1 VH with Q1E, K74T
VL: B1 VL
notes: also called VH: (K74T)
Consider B28, for which the “binding by ELISA relative to parental” value in assay [1] worked out at 0.83; in assay [2], 0.58; in assay [3], 0.87.
